In paper PMC12340942:

Molecular target: RSV postfusion F (Flys-GCN without the StrepII-tag) (respiratory syncytial virus (RSV))
Test: cryo-EM structure

“RSV postfusion F (Flys-GCN without the StrepII-tag) (domain or fragment)” was tested, and the stoichiometry N was 3.
